Laboratory results published in patent US20230303685A1 (ELECTRA THERAPEUTICS, published 2023).

T1: Human SIRPγ CHO
T1 construct: also called human SIRPγ on CHO cells
T1 chain: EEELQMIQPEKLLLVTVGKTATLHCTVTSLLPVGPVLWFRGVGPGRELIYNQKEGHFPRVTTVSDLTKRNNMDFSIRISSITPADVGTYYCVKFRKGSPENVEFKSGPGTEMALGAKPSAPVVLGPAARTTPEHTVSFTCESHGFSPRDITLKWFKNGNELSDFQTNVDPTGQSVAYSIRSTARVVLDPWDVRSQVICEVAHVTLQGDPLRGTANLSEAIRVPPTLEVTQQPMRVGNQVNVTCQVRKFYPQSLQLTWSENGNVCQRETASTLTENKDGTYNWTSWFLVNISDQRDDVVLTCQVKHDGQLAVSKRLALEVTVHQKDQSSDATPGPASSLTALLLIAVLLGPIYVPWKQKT

T2: Human SIRPβ1
T2 construct: also called human SIRPβ1 extracellular domain, plate-coated
T2 chain: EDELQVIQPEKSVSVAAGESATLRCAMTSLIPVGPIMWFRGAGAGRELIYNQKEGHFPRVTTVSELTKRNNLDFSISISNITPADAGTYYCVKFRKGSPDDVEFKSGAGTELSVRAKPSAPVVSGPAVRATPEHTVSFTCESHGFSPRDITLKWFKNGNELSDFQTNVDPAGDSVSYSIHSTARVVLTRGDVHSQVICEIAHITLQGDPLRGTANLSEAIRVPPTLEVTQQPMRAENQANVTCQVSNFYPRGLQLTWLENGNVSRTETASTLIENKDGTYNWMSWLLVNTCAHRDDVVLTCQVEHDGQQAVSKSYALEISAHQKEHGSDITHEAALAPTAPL

T3: Human SIRPγ
T3 construct: also called human SIRPγ extracellular domain, plate-coated
T3 chain: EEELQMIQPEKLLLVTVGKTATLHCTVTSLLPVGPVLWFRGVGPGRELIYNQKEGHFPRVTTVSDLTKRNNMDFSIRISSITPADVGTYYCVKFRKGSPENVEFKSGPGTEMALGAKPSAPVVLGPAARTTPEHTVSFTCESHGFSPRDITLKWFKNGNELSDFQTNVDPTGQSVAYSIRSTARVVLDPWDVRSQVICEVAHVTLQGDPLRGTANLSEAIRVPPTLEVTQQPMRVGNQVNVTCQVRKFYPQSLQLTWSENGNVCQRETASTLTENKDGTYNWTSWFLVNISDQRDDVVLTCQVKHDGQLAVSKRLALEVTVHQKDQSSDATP

B1: Antibody 32 (antibody, V domains shown)
VH: QVQLQESGPGLVKPSGTLSLTCAVSGGSISSSNWWSWVRQPPGKGLEWIGEIYHSGNTNYNPSLKSRVTISVDKSKNQFSLKLSSVTAADTAVYYCAREGIEGYYFYYGMDVWGQGTTVTVSS
VL: DIQLTQSPSFLSASVGDRVTITCRASQGISGYLDWYQQKPGKAPKLLIYAASTLQRGVPSRFSGSGSGTDFNLTISSLQPEDFATYYCQQFTSDLITFGQGTRLEIK
notes: same variable regions as Antibodies 3 and 24
B2: Antibody 28 (antibody, V domains shown)
VH: QVQLQESGPGLVKPSGTLSLTCAVSGGSISSSNWWSWVRQPPGKGLEWIGEIYHSGSTNYNPSLKSRVTISVDKSKNQFSLKLSSVTAADTAVYYCARRGIWFGVGPWGQGTLVTVSS
VL: DIVMTQSPLSLPVTPGEPASISCRSSQSLLHGNGFNYLDWYLQKPGQSPQLLIYLGSNRASGVPDRFTGSGSGTDFTLKISRVEAEDVGVYYCMQGLQTPRTFGQGTKVEIK

Experiments:
Human SIRPβ1/DAP12 CHO = molecular target: T4, Human SIRPβ1/DAP12 CHO; test: flow cytometry, stably transfected CHO cells, antibody titrated, labelled anti-human IgG, MFI
T4 construct: also called human SIRPβ1 on CHO cells co-transfected with DAP12; copies: 1 + 2
Method: (§1) Selected antibodies were tested for binding to stably transfected human SIRPα, SIRPβ1 (co-transfected with DAP12), or SIRPγ Chinese hamster ovary (CHO) cells via flow cytometry. A titration of SIRP antibodies was added to the cells and detected using a fluorescently labelled secondary antibody. Graph depicts the median fluorescence intensity (MFI) at each concentration.

Human SIRPγ CHO = molecular target: T1, Human SIRPγ CHO; test: as above
Method: as §1

Human SIRPβ1 = molecular target: T2, Human SIRPβ1; test: ELISA, extracellular domain coated at 2 µg/mL, purified antibody titrated, anti-human IgG, chemiluminescence
[1] = molecular target: T5, human SIRPα V1 extracellular domain, monomeric (human, UniProt P78324 31-373); test: as above
T5 construct: also called hSIRPα V1

Cynomolgus Monkey SIRPγ = molecular target: T6, Cynomolgus Monkey SIRPγ (Macaca fascicularis); test: as above
T6 construct: extracellular domain; also called cyno SIRPγ extracellular domain, plate-coated

Human SIRPγ [2] = molecular target: T3, Human SIRPγ; test: as above
[3] = molecular target: T5, human SIRPα V1 extracellular domain, …; test: SPR (Biacore); antibody captured by anti-IgG on chip, monomeric SIRPα extracellular domain as analyte, 1:1 model
Method: (§2) Selected antibodies were tested for their affinities to two hSIRPα variants (V1 and V2), and to cynomolgus monkey (herein referred to as “cyno”) SIRPα. The affinities of these SIRP antibodies were determined using surface plasmon resonance. The SIRP antibodies were flowed onto a chip and captured by an anti-mouse IgG or an anti-human IgG covalently coupled to the surface of the chip. A three-point titration of the extracellular binding domain of hSIRPα was performed per the manufacturer's recommended protocols.

[4] = molecular target: T7, human SIRPα V2 extracellular domain, monomeric (human, UniProt P78324 31-370); test: as above
T7 construct: also called hSIRPα V2
Method: as §2

[5] = molecular target: T8, cynomolgus monkey SIRPα extracellular domain, monomeric (cynomolgus monkey, UniProt A0A2K5VYQ9 31-372); test: as above
T8 construct: extracellular domain; also called Cyno SIRPα
Method: as §2

Human SIRPγ [6] = molecular target: T3, Human SIRPγ; test: ELISA, extracellular domain coated at 1 µg/mL, purified antibody titrated, anti-human IgG, chemiluminescence
Method: Select SIRP antibodies were purified by Protein G from hybridoma supernatants and analyzed in a titration via ELISA. Briefly, 1 μg/mL of extracellular domain SIRPα was coated onto high protein-binding plates and blocked. Purified antibodies were added in a titration to the coated plates. The antibodies were detected by an anti-rat IgG antibody and a chemiluminescent substrate.
FIGS. 3A-3C show binding curves of SIRP antibodies and two isotype controls with human Fc to human SIRPα V1, human SIRPβ1, human SIRPγ and cynomolgus monkey SIRPα by ELISA. […] Isotype control 1 was an unrelated human IgG1 antibody with irrelevant CDRs. Isotype control 2 was the same as isotype control 1 but contained the same amino acid substitutions in the Fc region as some of the selected SIRP antibodies for increased FcγR binding (referring to Table 11). DNA was transiently transfected into CHO cells for 7 days. Antibodies were purified by Protein A from cell supernatants and analyzed in a titration via ELISA as previously described in FIGS. 2A-2B using an anti-human IgG antibody as the detection antibody.

Cynomolgus Monkey SIRPβ1 = molecular target: T9, Cynomolgus Monkey SIRPβ1 (Macaca fascicularis); test: ELISA, extracellular domain coated at 2 µg/mL, purified antibody titrated, anti-human IgG, chemiluminescence
T9 construct: extracellular domain; also called cyno SIRPβ1 extracellular domain, plate-coated

[7] = molecular target: T8, cynomolgus monkey SIRPα extracellular …; test: as above
[8] = molecular target: T10, Human SIRPγ conjugated to an Fc region (human); test: BLI blocking; 200 nM antibody pre-incubated with 20 nM SIRPγ-Fc, binding to immobilised CD47-His (competitor), % of response of SIRPγ-Fc alone
T10 construct: also called SIRPγ-Fc; SIRP-Fc; not shown: Fc region

T4 sequence (DAP12, as listed by the source limits assumed): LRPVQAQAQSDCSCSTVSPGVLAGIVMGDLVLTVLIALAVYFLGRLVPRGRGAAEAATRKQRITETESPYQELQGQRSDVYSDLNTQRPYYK

Row | Binder | EC50 (read off the curve) (Human SIRPβ1/DAP12 CHO) [µg/mL] | EC50 (read off the curve) (Human SIRPγ CHO) [µg/mL] | EC50 (read off the curve) (Human SIRPβ1) [µg/mL] | EC50 (read off the curve) [1] [µg/mL] | EC50 (read off the curve) (Cynomolgus Monkey SIRPγ) [µg/mL] | EC50 (read off the curve) (Human SIRPγ [2]) [µg/mL] | Kd [3] [nM] | Kd [4] [nM] | Kd [5] [nM] | EC50 (read off the curve) (Human SIRPγ [6]) [µg/mL] | EC50 (read off the curve) (Cynomolgus Monkey SIRPβ1) [µg/mL] | EC50 (read off the curve) [7] [µg/mL] | SIRPγ-CD47 Response (%) [8] [%]
1 | B1 | ~0.3 | ~0.2 | ~0.03 | ~0.03 | ~0.03 | ~0.02 |  |  |  |  |  |  | 
2 | B2 | ~0.4 | ~0.3 | ~0.04 |  |  | ~0.03 | 311 | 373 | 361 | ~0.04 | ~0.04 | ~0.04 | 144
